# Experimental data taken from patent US20240368282A1 (BIOSCEPTRE AUST, published 2024).
# T1: dysfunctional P2X7 receptor (human, UniProt Q99572 1-595)
# T1 construct: Endogenous on cancer cell lines (MOLM-13, JeKo-1); also called nfP2X7; nfP2X7 receptor
# T1 sequence: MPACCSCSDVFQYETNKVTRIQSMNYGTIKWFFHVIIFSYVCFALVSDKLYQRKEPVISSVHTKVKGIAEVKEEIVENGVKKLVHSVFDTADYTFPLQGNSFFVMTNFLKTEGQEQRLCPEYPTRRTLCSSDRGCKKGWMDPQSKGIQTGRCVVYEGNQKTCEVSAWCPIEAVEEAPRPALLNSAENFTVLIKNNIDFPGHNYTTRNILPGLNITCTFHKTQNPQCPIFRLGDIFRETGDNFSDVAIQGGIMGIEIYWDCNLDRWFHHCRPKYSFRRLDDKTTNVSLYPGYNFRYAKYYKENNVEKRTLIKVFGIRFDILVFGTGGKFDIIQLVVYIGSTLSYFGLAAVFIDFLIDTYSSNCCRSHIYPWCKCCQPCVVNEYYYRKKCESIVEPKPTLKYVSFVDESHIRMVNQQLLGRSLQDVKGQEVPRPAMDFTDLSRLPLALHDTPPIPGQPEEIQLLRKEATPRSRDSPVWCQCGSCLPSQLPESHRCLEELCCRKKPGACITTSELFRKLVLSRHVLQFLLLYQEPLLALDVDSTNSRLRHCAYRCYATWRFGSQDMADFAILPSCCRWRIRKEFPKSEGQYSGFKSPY
# Target: T1, dysfunctional P2X7 receptor
# Assay: flow cytometry, anti-HIS-FITC, MOLM-13 cells
# Method: Indirect staining of artificial proteins on MOLM-13 cells via anti-HIS staining. […] Histogram overlay of HIS-FITC positivity on MOLM-13. […] HIS-ab was used according to manufacturer with 1 μl per test, target cells were incubated with 50 μl of supernatant from Lenti-X™ 293T cells for 10 min at room temperature. Supernatant harvested 48 h after transfection.
binder,measurement,value
"Orchestration molecule OR2-3 (nfP2X7), IgG1 format (antibody, V domains shown, Tested as supernatant; also called OR2 paired to OR3) VH: EVQLLESGGGLVQPGGSLRLSCAASGFTFRNHDMGWVRQAPGKGLEWVSAISGSGGSTYYANSVKGRFTISRDNSKNTLYLQMNSLRAEDTAVYYCAEPKPMDTEFDYRSPGTLVTVSS VL: DIQMTQSPSSLSASVGDRVTITCRASQYIYDYLNWYQQKPGKAPKLLIYAASYLQSGVPSRFSGSGSGTDFTLTISSLQPEDFATYYCQQYHHPSTFGQGTKVEIKR",binding result,binds
